Source: US20150017195A1 (WASHINGTON UNIVERSITY, published 2015)

B1: Ad5Luc1 control vector containing the HAdV-5 wild type fiber (other)
chain: MKRARPSEDTFNPVYPYDTETGPPTVPFLTPPFVSPNGFQESPPGVLSLRLSEPLVTSNGMLALKMGNGLSLDEAGNLTSQNVTTVSPPLKKTKSNINLEISAPLTVTSEALTVAAAAPLMVAGNTLTMQSQAPLTVHDSKLSIATQGPLTVSEGKLALQTSGPLTTTDSSTLTITASPPLTTATGSLGIDLKEPIYTQNGKLGLKYGAPLHVTDDLNTLTVATGPGVTINNTSLQTKVTGALGFDSQGNMQLNVAGGLRIDSQNRRLILDVSYPFDAQNQLNLRLGQGPLFINSAHNLDINYNKGLYLFTASNNSKKLEVNLSTAKGLMFDATAIAINAGDGLEFGSPNAPNTNPLKTKIGHGLEFDSNKAMVPKLGTGLSFDSTGAITVGNKNNDKLTLWTTPAPSPNCRLNAEKDAKLTLVLTKCGSQILATVSVLAVKGSLAPISGTVQSAHLIIRFDENGVLLNNSFLDPEYWNFRNGDLTEGTAYTNAVGFMPNLSAYPKSHGKTAKSNIVSQVYLNGDKTKPVTLTITLNGTQETGDTTPSAYSMSFSWDWSGHNYINEIFATSSYTFSYIAQE

How the values were obtained:
[1] = molecular target: human coxsackie-adenovirus receptor (CAR) stably expressed on CHO-hCAR cells (human) (UniProt P78310); assay: cell-based or functional assay
[2] = molecular target: human coxsackie-adenovirus receptor (CAR) stably expressed on CHO-hCAR cells (human) (UniProt P78310)
[3] = molecular target: T1, human coxsackie-adenovirus receptor (CAR) stably expressed on CHO-hCAR cells (human, UniProt P78310 20-365); assay: cell-based or functional assay
T1 sequence: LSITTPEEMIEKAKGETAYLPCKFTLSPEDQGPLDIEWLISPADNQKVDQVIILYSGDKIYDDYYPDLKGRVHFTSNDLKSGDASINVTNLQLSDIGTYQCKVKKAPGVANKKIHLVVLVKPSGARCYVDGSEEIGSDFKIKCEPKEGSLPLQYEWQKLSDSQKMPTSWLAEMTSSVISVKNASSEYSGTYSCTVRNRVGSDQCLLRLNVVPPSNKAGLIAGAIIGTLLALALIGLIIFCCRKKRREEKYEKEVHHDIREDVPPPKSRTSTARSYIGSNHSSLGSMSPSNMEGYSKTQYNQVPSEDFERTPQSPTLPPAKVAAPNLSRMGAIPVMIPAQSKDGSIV

Molecule | inhibition of Ad5Luc1 gene transfer to CHO-hCAR cells by knob protein at 50 µg/ml [1] | IC50 (read off the curve); inhibition of luciferase gene transfer of Ad5Luc1 into CHO-hCAR cells [2] | luciferase activity in CHO-hCAR cells versus CHO cells (gene transfer assay) [3]
recombinant HAdV-5 fiber knob protein (from UniProt P11818 387-581) | > 96% | 1 µg/mL | –
B1 | – | – | 80 fold
